Literature values in article PMC9697831.
Where two headings read alike, the source gives them in different places.

Key:
Kv1.3 (Homo sapiens) [1] = target: Kv1.3 (Homo sapiens) (UniProt P22001)
Kv1.3 (Homo sapiens) [2] = target: Kv1.3 (Homo sapiens) (UniProt P22001); remark: listed apart in the source

Sequence of Kv1.3 (Homo sapiens) (P22001 whole entry): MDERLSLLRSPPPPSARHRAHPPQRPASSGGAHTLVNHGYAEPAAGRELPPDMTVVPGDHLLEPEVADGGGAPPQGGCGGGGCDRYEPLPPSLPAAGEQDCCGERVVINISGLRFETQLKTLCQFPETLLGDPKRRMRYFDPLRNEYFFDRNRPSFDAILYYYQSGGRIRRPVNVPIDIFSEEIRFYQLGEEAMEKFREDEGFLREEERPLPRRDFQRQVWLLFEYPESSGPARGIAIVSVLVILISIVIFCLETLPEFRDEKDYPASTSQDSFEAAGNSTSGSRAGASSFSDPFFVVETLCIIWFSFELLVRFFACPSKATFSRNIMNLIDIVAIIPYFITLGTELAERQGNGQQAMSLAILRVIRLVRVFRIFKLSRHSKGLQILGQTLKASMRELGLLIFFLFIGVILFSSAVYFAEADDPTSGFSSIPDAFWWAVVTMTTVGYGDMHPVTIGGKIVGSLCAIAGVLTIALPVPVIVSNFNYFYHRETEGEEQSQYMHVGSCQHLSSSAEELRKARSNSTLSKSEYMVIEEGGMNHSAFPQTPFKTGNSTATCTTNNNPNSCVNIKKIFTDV
Sequence of Ts6 (P59936 23-62): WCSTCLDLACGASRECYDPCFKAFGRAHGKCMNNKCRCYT
Sequence of Anuroctoxin (P0C166 whole entry): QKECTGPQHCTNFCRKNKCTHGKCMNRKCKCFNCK

| Substance | Kd (Kv1.3 (Homo sapiens) [1]) | Kd (Kv1.3 (Homo sapiens) [2]) |
| --- | --- | --- |
| Anuroctoxin (from UniProt P0C166) | 0.73 nM |  |
| Ts6 (from UniProt P59936) |  | 0.55 nM |
